For assay [1], the target named is hVISTA-ECD (human). The assay can be described thus: SPR pH 7.4, 37C.
The target in assay [2] is hVISTA-ECD (human). The experiment in a line: SPR pH 7.4, low or no binding.
The target in assay [3] is hVISTA-ECD (human). The experiment in a line: SPR pH 6.0, 37C.
In assay [4] the target is hVISTA-ECD (human). The assay can be described thus: SPR pH 6.45.
The target of assay [5] is hVISTA-ECD (human). The assay can be described thus: SPR pH 6.45, 37C.
Assay [6] addresses hVISTA-ECD (human). The assay can be described thus: SPR pH 6.0, 37C. This is another data set of the same source.
For assay [7], the target named is hVISTA-ECD (human). The assay can be described thus: SPR pH 6.0, 37C. This is another data set of the same source.
For assay [8], the target named is hVISTA-ECD (human). The assay can be described thus: SPR pH 7.4, 37C. This is another data set of the same source.
The target in assay [9] is hVISTA-ECD (human). The assay can be described thus: SPR pH 6.0.
Assay [10] deals with hVISTA-ECD (human). The experiment in a line: SPR pH 6.9.
Assay [11] deals with hVISTA-ECD (human). The assay can be described thus: SPR pH 6.9, 37C.
Assay [12] concerns the target hVISTA-ECD (human). The experiment in a line: SPR pH 6.0, 37C. This is another data set of the same source.
In assay [13] the target is hVISTA-ECD (human). The experiment in a line: SPR pH 7.4, 37C. The source holds these as a separate data set.
Assay [14] concerns the target hVISTA-ECD (human). The assay can be described thus: SPR pH 6.45, low or no binding.
The target of assay [15] is hVISTA-ECD (human). The experiment in a line: SPR pH 7.4, 37C. This is another data set of the same source.
Assay [16] concerns the target hVISTA-ECD (human). The experiment in a line: SPR pH 6.9, low or no binding.

Numbering of substitutions follows the chain as printed. Where only a bound is given, the exact number is not on record here.

hVISTA-ECD (human), sequence (chain, as listed by the source): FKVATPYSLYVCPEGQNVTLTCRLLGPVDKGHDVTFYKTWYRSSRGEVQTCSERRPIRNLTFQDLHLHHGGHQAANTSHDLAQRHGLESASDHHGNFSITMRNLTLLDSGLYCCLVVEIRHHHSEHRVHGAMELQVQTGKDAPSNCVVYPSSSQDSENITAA

B1: P1-068748 (antibody, V domains shown)
VH: QVQLVESGGGVVQPGRSLRLSCAASGFTFSHHAMHWVRQAPGKGLEWVAIIWYDGSNDDYADSVKGRFTISRDNSKNTLYLQMNSLRAEDTAVYYCARDSGFYDSYYFDYWGQGTLVTVSS
VL: EIVLTQSPATLSLSPGERATLSCRASQSVSSSYLAWYQQKPGQAPRLLIYDASNRATGIPARFSGSGSGTDFTLTISSLEPEDFATYYCQQYNSYPYTFGQGTKLEIK
For the molecule B1, the binding result in the assay with hVISTA-ECD [1] is reported as “no binding”.

B2: P1-068744 (antibody, V domains shown)
VH: B1 VH with H31E, H32Y, I50H, D58K, D59Y, Y60E, D104E, Y110E
VL: B1 VL
As for B2, in the assay with hVISTA-ECD [2], the binding result is “no binding”.

B3: P1-068746 (antibody, V domains shown)
VH: B1 VH with H31S, H32Y, D58H, D59H
VL: B1 VL
Take B3: the koff with hVISTA-ECD [3] is above 0.01 s⁻¹.

B4: P1-068742 (antibody, V domains shown)
VH: B1 VH with H31D, H32Y, N57D, D58K, D104E, S105D
VL: B1 VL
In the case of B4, the koff with hVISTA-ECD [3] is above 0.01 s⁻¹.

B5: P1-068767 (antibody, V domains shown)
VH: EVQLVESGGGLVQPGKSLRLSCAASGFTLEDYAMHWVRQAPGKGLEWVSGIDWNSENIGYADSVKGRFTISRDNAKNSLYLQMNSLRTEDTALYYCAKVPGYSGGWIDAEDDWGQGTMVTVSS
VL: not shown
Turning to B5, the Kd worked out at 31.8 nM with hVISTA-ECD [4]; 38 nM with hVISTA-ECD [5]; 7.8 nM in the assay with hVISTA-ECD [6]; 7.6 nM with hVISTA-ECD [7]; 19000 nM in the assay with hVISTA-ECD [8]; 6.78 nM in the assay with hVISTA-ECD [9]. Also, the dissociation constant Kd was found to be 385 nM in the assay with hVISTA-ECD [10], 400 nM with hVISTA-ECD [11], 3.4 nM in the assay with hVISTA-ECD [12] and 19000 nM with hVISTA-ECD [13]. Moreover, the binding result with hVISTA-ECD [2] is given as “no binding”.

B6: P1-068761 hIgG1f afucosylated (antibody, V domains shown)
VH: B5 VH with Y32E, D52N, N57E, G104H, D112V
VL: not shown
Take B6: the dissociation constant (Kd) in the assay with hVISTA-ECD [6] is 4.1 nM; with hVISTA-ECD [13], 8200 nM.

B7: P1-070922 (P1-068767_E30D_E55A) (antibody, V domains shown)
VH: B5 VH with E30D, E56A
VL: not shown
For the molecule B7, the binding result in the assay with hVISTA-ECD [2] is given as “no binding”.

B8: P1-070878 (P1-068761_E55A_E56N) (antibody, V domains shown)
VH: B5 VH with Y32E, D52N, E56A, G104H, D112V
VL: not shown
As for B8, the binding result with hVISTA-ECD [2] is “no binding”.

B9: P1-068759 (antibody, V domains shown)
VH: B5 VH with Y32E
VL: not shown
On to B9, for which the binding result in the assay with hVISTA-ECD [14] was “no binding”.

B10: P1-068769 (antibody, V domains shown)
VH: B5 VH with Y32E, D52N, E56D, N57H
VL: not shown
In the case of B10, in the assay with hVISTA-ECD [15], the binding result is given as “no binding”.

B11: P1-061029 hIgG1f afucosylated (antibody, V domains shown)
VH: B5 VH with E30D, D52N, E56A, E110F, D112V
VL: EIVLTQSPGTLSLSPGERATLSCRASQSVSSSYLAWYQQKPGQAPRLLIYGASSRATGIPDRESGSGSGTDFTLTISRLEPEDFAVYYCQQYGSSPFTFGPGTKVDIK
For B11, the equilibrium dissociation constant (Kd) with hVISTA-ECD [6] was 6.9 nM; with hVISTA-ECD [13], 41 nM.

B12: P1-070904 (P1-068767_E30D) (antibody, V domains shown)
VH: B5 VH with E30D
VL: not shown
For B12, the binding result with hVISTA-ECD [2] is listed as “no binding”.

B13: P1-070870 (P1-068761_E56N) (antibody, V domains shown)
VH: B5 VH with Y32E, D52N, G104H, D112V
VL: not shown
On to B13, for which the binding result in the assay with hVISTA-ECD [2] was “no binding”.

B14: P1-070864 (P1-068761_E30D) (antibody, V domains shown)
VH: B5 VH with E30D, Y32E, D52N, N57E, G104H, D112V
VL: not shown
Regarding B14, the binding result in the assay with hVISTA-ECD [2] is listed as “no binding”.

B15: P1-068767 hIgG1f afucosylated (antibody, V domains shown)
VH: B5 VH
VL: not shown
Consider B15, for which the Kd in the assay with hVISTA-ECD [6] was determined as 7.9 nM; with hVISTA-ECD [13] it was 24000 nM.

B16: P1-068761 (antibody, V domains shown)
VH: B5 VH with Y32E, D52N, N57E, G104H, D112V
VL: not shown
Turning to B16, in the assay with hVISTA-ECD [2], the binding result is given as “no binding”.

B17: P1-068757 (antibody, V domains shown)
VH: B5 VH with Y32E, D52N, N57E
VL: not shown
For B17, the binding result in the assay with hVISTA-ECD [16] was “no binding”.

B18: P1-070900 (P1-068761_E56N_H100G) (antibody, V domains shown)
VH: B5 VH with Y32E, D52N, D112V
VL: not shown
In the case of B18, the binding result with hVISTA-ECD [2] was “no binding”.

B19: P1-070890 (P1-068761_E30D_E55A) (antibody, V domains shown)
VH: B5 VH with E30D, Y32E, D52N, E56A, N57E, G104H, D112V
VL: not shown
As for B19, the binding result in the assay with hVISTA-ECD [2] is on record as “no binding”.

B20: P1-068773 (antibody, V domains shown)
VH: B5 VH with E56D
VL: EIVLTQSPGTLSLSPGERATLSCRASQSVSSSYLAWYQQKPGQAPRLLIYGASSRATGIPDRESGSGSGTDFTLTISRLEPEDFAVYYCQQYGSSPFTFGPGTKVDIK
Consider B20, for which the dissociation constant Kd with hVISTA-ECD [7] was determined as 9.4 nM.

B21: P1-068767 hIgG1f (antibody, V domains shown)
VH: B5 VH
VL: not shown
As to B21, the values for the equilibrium dissociation constant (Kd) with hVISTA-ECD [6] and with hVISTA-ECD [13] were 8 nM and 22000 nM, respectively.

B22: P1-068775 (antibody, V domains shown)
VH: B5 VH with Y32E, N57E, G104H
VL: not shown
In the case of B22, the binding result in the assay with hVISTA-ECD [15] is “no binding”.

B23: P1-070872 (P1-068761_H100G) (antibody, V domains shown)
VH: B5 VH with Y32E, D52N, N57E, D112V
VL: not shown
As for B23, the binding result in the assay with hVISTA-ECD [2] is recorded as “no binding”.

B24: P1-068765 (antibody, V domains shown)
VH: B5 VH with L29D, D52N, N57E
VL: not shown
For B24, the binding result with hVISTA-ECD [2] is recorded as “no binding”.

B25: P1-068771 (antibody, V domains shown)
VH: B5 VH with Y32E, D52N, E56H, N57E
VL: not shown
With B25, the binding result with hVISTA-ECD [15] was “no binding”.

Source of the values: patent US12735488 (dated 2026).
